Assay results published in US20140271457A1 (AbbVie / Abbott, published 2014).

Target: Recombinant Human TNF-α/TNFSF1A (human, UniProt P01375 77-233)
Test: cell-based or functional assay

Sequence of Recombinant Human TNF-α/TNFSF1A (P01375 77-233 limits assumed): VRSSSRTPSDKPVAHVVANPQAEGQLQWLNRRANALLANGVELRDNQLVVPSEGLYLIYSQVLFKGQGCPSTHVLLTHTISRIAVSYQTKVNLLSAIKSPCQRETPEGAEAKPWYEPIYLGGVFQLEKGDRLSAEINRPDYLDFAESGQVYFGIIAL

Row | Binder | C-Terminal VD huTNFα Neutralization Assay IC50 [nM] | N-Terminal VD huTNFα Neutralization Assay IC50 [nM]
1 | DVD3121 (bispecific antibody, IgG1) VH: EVQLVQSGAEVKKPGASVKVSCKASGYTFTTYGVSWVRQAPGQGLEWMGEIYPGNYNTYYNEKFRGRVTMTTDTSTSTAYMELRSLRSDDTAVYYCARWRTSYFSDYGYFDYWGQGTTVTVSSASTKGPEVQLVQSGAEVKKPGASVKVSCKASGYTFNNYGIIWVRQAPGQGLEWMGWINTYTGKPTYAQKFQGRVTMTTDTSTSTAYMELSSLRSEDTAVYYCARKLFNTVAVTDNAMDYWGQGTTVTVSS VL: DVVMTQSPLSLPVTLGQPASISCRSSQSLVHSHGNTYLHWYQQRPGQSPRLLIYTVSNRFSGVPDRFSGSGSGTDFTLKISRVEAEDVGVYYCSQSTHVPYTFGGGTKVEIKRTVAAPSVFIFPPDIQMTQSPSSLSASVGDRVTITCRASQDIENYLNWYQQKPGKAPKLLIYYTSRLQSGVPSRFSGSGSGTDFTLTISSLQPEDFATYFCQQGNTQPPTFGQGTKLEIKR | 0.036 | 
2 | DVD3118 (bispecific antibody, IgG1) VH: EVQLVQSGAEVKKPGASVKVSCKASGYTFTTYGVSWVRQAPGQGLEWMGEIYPGNYNTYYNEKFRGRVTMTTDTSTSTAYMELRSLRSDDTAVYYCARWRTSYFSDYGYFDYWGQGTTVTVSSGGGGSGGGGSEVQLVQSGAEVKKPGASVKVSCKASGYTFNNYGIIWVRQAPGQGLEWMGWINTYTGKPTYAQKFQGRVTMTTDTSTSTAYMELSSLRSEDTAVYYCARKLFNTVAVTDNAMDYWGQGTTVTVSS VL: DVVMTQSPLSLPVTLGQPASISCRSSQSLVHSHGNTYLHWYQQRPGQSPRLLIYTVSNRFSGVPDRFSGSGSGTDFTLKISRVEAEDVGVYYCSQSTHVPYTFGGGTKVEIKRGGSGGGGSGDIQMTQSPSSLSASVGDRVTITCRASQDIENYLNWYQQKPGKAPKLLIYYTSRLQSGVPSRFSGSGSGTDFTLTISSLQPEDFATYFCQQGNTQPPTFGQGTKLEIKR | 0.065 | 

Now from value to binder:

Row | C-Terminal VD huTNFα Neutralization Assay IC50 [nM] | N-Terminal VD huTNFα Neutralization Assay IC50 [nM] | Binder
3 | 0.163 |  | DVD3119 (bispecific antibody, IgG1) VH: EVQLVQSGAEVKKPGASVKVSCKASGYTFTTYGVSWVRQAPGQGLEWMGEIYPGNYNTYYNEKFRGRVTMTTDTSTSTAYMELRSLRSDDTAVYYCARWRTSYFSDYGYFDYWGQGTTVTVSSASTKGPEVQLVQSGAEVKKPGASVKVSCKASGYTFNNYGIIWVRQAPGQGLEWMGWINTYTGKPTYAQKFQGRVTMTTDTSTSTAYMELSSLRSEDTAVYYCARKLFNTVAVTDNAMDYWGQGTTVTVSS VL: DVVMTQSPLSLPVTLGQPASISCRSSQSLVHSHGNTYLHWYQQRPGQSPRLLIYTVSNRFSGVPDRFSGSGSGTDFTLKISRVEAEDVGVYYCSQSTHVPYTFGGGTKVEIKRTVAAPDIQMTQSPSSLSASVGDRVTITCRASQDIENYLNWYQQKPGKAPKLLIYYTSRLQSGVPSRFSGSGSGTDFTLTISSLQPEDFATYFCQQGNTQPPTFGQGTKLEIKR
4 |  | 1.96 | DVD3117 (bispecific antibody, IgG1) VH: EVQLVQSGAEVKKPGASVKVSCKASGYTFNNYGIIWVRQAPGQGLEWMGWINTYTGKPTYAQKFQGRVTMTTDTSTSTAYMELSSLRSEDTAVYYCARKLFNTVAVTDNAMDYWGQGTTVTVSSASTKGPSVFPLAPEVQLVESGGGLVQPGGSLRLSCAASGFTFSNYGVTWVRQAPGKGLEWVSMIWADGSTHYASSVKGRFTISRDNSKNTLYLQMNSLRAEDTAVYYCAREWQHGPVAYWGQGTLVTVSS VL: DIQMTQSPSSLSASVGDRVTITCRASQDIENYLNWYQQKPGKAPKLLIYYTSRLQSGVPSRFSGSGSGTDFTLTISSLQPEDFATYFCQQGNTQPPTFGQGTKLEIKRTVAAPDIQMTQSPSSLSASVGDRVTITCRASQLVSSAVAWYQQKPGKAPKLLIYWASARHTGVPSRFSGSGSGTDFTLTISSLQPEDFATYYCQQHYKTPFTFGQGTKLEIKR
